In PMC4624198:

Molecular target: T1, HTP-3 (G490K, G728K), Strep-tagged (C. elegans), O01820
T1 chain: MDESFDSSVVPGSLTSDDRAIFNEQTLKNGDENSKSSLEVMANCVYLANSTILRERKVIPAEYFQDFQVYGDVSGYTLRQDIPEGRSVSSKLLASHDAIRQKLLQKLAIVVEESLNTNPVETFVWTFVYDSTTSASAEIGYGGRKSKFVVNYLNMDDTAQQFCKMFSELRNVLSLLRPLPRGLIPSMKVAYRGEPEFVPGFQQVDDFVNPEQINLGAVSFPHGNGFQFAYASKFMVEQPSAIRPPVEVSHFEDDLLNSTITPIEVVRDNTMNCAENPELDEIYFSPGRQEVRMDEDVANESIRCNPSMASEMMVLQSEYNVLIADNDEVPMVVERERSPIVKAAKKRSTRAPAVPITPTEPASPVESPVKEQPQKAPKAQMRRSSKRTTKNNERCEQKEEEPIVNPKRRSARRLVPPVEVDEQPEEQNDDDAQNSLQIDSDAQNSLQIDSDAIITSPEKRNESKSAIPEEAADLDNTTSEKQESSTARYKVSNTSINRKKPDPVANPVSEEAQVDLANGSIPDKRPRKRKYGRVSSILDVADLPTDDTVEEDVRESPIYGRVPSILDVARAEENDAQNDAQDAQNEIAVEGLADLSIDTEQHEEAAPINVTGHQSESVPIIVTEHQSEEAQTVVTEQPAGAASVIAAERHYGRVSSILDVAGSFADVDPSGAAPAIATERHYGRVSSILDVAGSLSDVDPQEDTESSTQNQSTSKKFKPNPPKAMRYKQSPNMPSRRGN
Test: pull-down
Conditions: remark: other sources report otherwise

HTP-1 bound, percent of the amount bound to the wild-type complex: 10%
B1: HTP-1, untagged, Q20305 1-352 (natural protein)
chain: MAPLETIYDESLNKSADSIDDKKWSKLFPRIVSDPDRSSNFMTRAIYVAFSAVLRNRNILGQEYFTKNYITEKLKCMTLCFRNPRSNQIAQLLRNAGDATKDGFLKEVSLVITNNEGDLEAIEVFSMKFIYFENGGVVARLSTDKNGQEDPHFAKLAQLVYEGGDSVRDQMVTIVRSVQFLCTKVLEPLPEEFTANFRLEYTNDAPSNFRIDGFEDSSTFYTLPDDIQSATIGHLRPGCHAANMECWSMLMSDSYEAELTLKRHLDKVSDRHGFNPVNVLYKSFNSEDSDTSLSQATTESVNDQGGNETSPVDDITESLEKAQMSPIQTRPTTRRGADGSKTRSSPYSRSCK
